Kd data for one molecule are collected here from PMC4547098 (eLife, 2015).

For test [1], the target named is AVR-PikE with non-cleavable C-terminal 6xHis tag (pOPINE) (Magnaporthe oryzae, UniProt C4B8B8 22-113). As to the kind of experiment: SPR. The following applies: both partners purified.
The target of test [2] is AVR-PikD with non-cleavable C-terminal 6xHis tag (pOPINE) (Magnaporthe oryzae, UniProt C4B8B8 22-113). As to the kind of experiment: SPR; Biacore T200, 25°C, single-cycle kinetics; […]; 50 mM HEPES pH 7.5, 150 mM NaCl, 0.1% Tween 20. The following applies: both partners purified.

B1: Pikp-HMA domain (HMA integrated domain of the rice NLR Pikp-1) (domain or fragment)
chain: GLKQKIVIKVAMEGNNCRSKAMALVASTGGVDSVALVGDLRDKIEVVGYGIDPIKLISALRKKVGDAELLQVS
notes: also called Pikp1-HMA; Pikp-1 HMA; not shown: 6xHis+SUMO, N-terminal, cleaved
Regarding B1, the equilibrium dissociation constant (Kd) was 367 ± 41 nM in test [1] and 29 ± 3.5 nM in test [2].
